Reference: patent publication US20260234246A1 (CAEDO ONCOLOGY, published 2026)
Substitutions are numbered along the chain they refer to. Values belong to the binder of their own block, whether it stands above or below them.

What was measured:
[1] = target: T1, human CD47 on the surface of cells (human cancer cell lines and human red blood cells) (human, UniProt Q08722 19-323); test: flow cytometry, FITC-conjugated antibody on Reh cells
T1 construct: Native CD47 of human cell lines (Jurkat, Reh, CCRF-CEM and others) and of RBCs from healthy donors; also called cell-surface CD47
Description: (§1) PBS-washed cancer cell lines or RBCs were pelleted and washed with washing buffer (3% (w/v) BSA, 1% (w/v) sodium azide in PBS) and incubated with Human BD Fc Block for 10 minutes before being plated into a round-bottom 96 well plate (2.5×10⁵ cells per well). Antibodies were conjugated with FITC using the FITC conjugation kit from Abcam. […] All samples were prepared in duplicates. Cells were washed three times and resuspended in cold washing buffer. Cells were kept on ice until analyses by flow cytometry. Excitation wavelength FITC: 488 nm, detection: 530/30 nm.
(§2) 4-parameter curve fitting was performed using GraphPad Prism

[2] = target: T1, human CD47 on the surface of cells …; test: flow cytometry, FITC-conjugated antibody on human RBCs
Description: as §1, §2

[3] = target: T1, human CD47 on the surface of cells …; test: flow cytometry, FITC-conjugated antibody on Jurkat cells
Description: as §1, §2

[4] = target: T1, human CD47 on the surface of cells …; test: flow cytometry, FITC-conjugated antibody on CCRF-CEM cells
Description: as §1, §2

[5] = target: T2, recombinant CD47 (recCD47), SinoBiological 12283-H27H-B, biotinylated (human, UniProt Q08722 19-139, biotinylated (AVI-tag)); test: SPR Biacore S200, single-cycle (top 1 uM), recCD47 on SA chip 1330 RU, antibody as analyte, 1:1 model
T2 construct: Bought protein, 17 kDa; At 17 kDa it can only be a part of it; also called recombinant biotinylated CD47; not shown: C-terminal His- and AVI-tag

[6] = target: T2, recombinant CD47 (recCD47), …; test: SPR Biacore S200, single-cycle (top 80 nM), recCD47 on SA chip 1330 RU, antibody as analyte, 1:1 model
[7] = target: T2, recombinant CD47 (recCD47), …; test: SPR Biacore S200, multi-cycle (top 50 nM), run 1, recCD47 on SA chip 1330 RU, antibody as analyte, 1:1 model
[8] = target: T2, recombinant CD47 (recCD47), …; test: SPR Biacore S200, multi-cycle (top 50 nM), run 2, recCD47 on SA chip 1330 RU, antibody as analyte, 1:1 model
[9] = target: T2, recombinant CD47 (recCD47), …; test: SPR Biacore S200, multi-cycle (top 50 nM), recCD47 on SA chip 1330 RU, antibody as analyte, 1:1 model
[10] = target: T2, recombinant CD47 (recCD47), …; test: SPR Biacore S200, single-cycle, recCD47 on SA chip 700 RU, antibody as analyte, 25 C, 1:1 model
[11] = target: T2, recombinant CD47 (recCD47), …; test: SPR Biacore S200, single-cycle, recCD47 on SA chip 100 RU, fragment as analyte, 25 C, 1:1 model
[12] = target: T2, recombinant CD47 (recCD47), …; test: SPR Biacore S200, single-cycle, recCD47 on SA chip 100 RU, antibody as analyte, 25 C, 1:1 model;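 further: antibodies were injected over the captured CD47 at a series of concentrations, and KD was derived as the dissociation rate constant divided by the association rate constant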
Description: The binding affinity of the huCO-mAbs to CD47 was determined via surface plasmon resonance (SPR) on a Biacore S200 system. Recombinant biotinylated CD47 was immobilized on an SA streptavidin chip to a level of 100 RU (in 10 mM NaAc pH5.0). The huCO-mAbs reacted with recombinant CD47 at gradient concentrations.
A 1:1 binding model was used to fit the data. […] The affinity constant KD is calculated as kd/kₐ.

[13] = target: T1, human CD47 on the surface of cells …; test: flow cytometry on Jurkat cells, goat anti-human FITC, MFI against log µg/ml
Description: PBS-washed cancer cell lines or RBCs were pelleted and washed with washing buffer (3% (w/v) BSA, 1% (w/v) sodium azide in DPBS) and incubated with Human BD Fc Block for 10 minutes before being plated into a round-bottom 96 well plate (2.5×10⁵ cells per well). […] All samples were prepared in duplicates. The cells were washed twice in washing buffer, followed by 30 minutes incubation with Goat anti-human FITC staining buffer (Goat anti-human FITC diluted 1:200 in washing buffer) on ice, protected from light with slight agitation. The cells were analyzed by flow cytometry after three washes in washing buffer. Excitation wavelength FITC: 488 nm, detection: 530/30 nm.

T1 sequence (Q08722 19-323 limits assumed): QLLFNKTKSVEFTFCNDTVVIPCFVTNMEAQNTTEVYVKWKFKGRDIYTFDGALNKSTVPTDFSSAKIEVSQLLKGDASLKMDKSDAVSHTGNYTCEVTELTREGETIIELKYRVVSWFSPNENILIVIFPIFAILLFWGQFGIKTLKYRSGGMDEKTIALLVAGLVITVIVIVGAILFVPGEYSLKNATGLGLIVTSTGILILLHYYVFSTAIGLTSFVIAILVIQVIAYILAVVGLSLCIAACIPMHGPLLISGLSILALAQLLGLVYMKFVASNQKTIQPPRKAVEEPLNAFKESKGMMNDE
T2 sequence (Q08722 19-139 limits assumed): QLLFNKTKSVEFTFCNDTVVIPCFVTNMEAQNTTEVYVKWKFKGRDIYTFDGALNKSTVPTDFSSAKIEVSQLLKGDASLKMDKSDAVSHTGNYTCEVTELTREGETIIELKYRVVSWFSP

EC50 [1]: 0.34 µg/mL
EC50 [2]: 2.42 µg/mL
EC50 [3]: 0.0303 µg/mL
EC50 [4]: 0.000285 µg/mL
Kd [5]: 1 nM
koff [5]: 0.0006 s⁻¹
kon [5]: 500000 M⁻¹ s⁻¹
Kd [6]: 1 nM
koff [6]: 0.0008 s⁻¹
kon [6]: 800000 M⁻¹ s⁻¹
Kd [7]: 1 nM
koff [7]: 0.001 s⁻¹
kon [7]: 1.5e+06 M⁻¹ s⁻¹
Kd [8]: 1 nM
koff [8]: 0.002 s⁻¹
kon [8]: 1.8e+06 M⁻¹ s⁻¹
B1: AO-A IgG1 (AO-176 candidate A) (antibody, V domains shown)
VH: QVQLVQSGAEVKKPGASVKVSCKASGYTFTNYWIHWVRQAPGQGLEWMGYTDPRTDYTEYNQKFKDRVTMTRDTSTSTVYMELSSLRSEDTAVYYCARGGRVGLGYWGQGTLVTVSS
VL: DIVMTQSPDSLAVSLGERATINCRSSQNIVQSNGNTYLEWYQQKPGQPPKLLIYKVFHRFSGVPDRFSGSGSGTDFTLTISSLQAEDVAVYYCFQGSHVPYTFGQGTKLEIKR
notes: Comparator from WO2020/198370; also called AO-A.1; AO-176 A

EC50 [1]: 3.1 µg/mL
EC50 [2]: 3.67 µg/mL
EC50 [3]: 0.0748 µg/mL
EC50 [4]: 0.000559 µg/mL
Kd [9]: 3 nM
koff [9]: 0.004 s⁻¹
kon [9]: 1.5e+06 M⁻¹ s⁻¹
Kd [6]: 2 nM
koff [6]: 0.001 s⁻¹
kon [6]: 800000 M⁻¹ s⁻¹
B2: AO-B IgG1 (AO-176 candidate B) (antibody, V domains shown)
VH: EVQLVQSGAEVKKPGESLKISCKGSGYTFTNYWIHWVRQMPGKGLEWMGYTDPRTDYTEYNQKFKDQVTISADKSISTAYLQWSSLKASDTAMYYCARGGRVGLGYWGQGTLVTVSS
VL: B1 VL
notes: Comparator from WO2020/198370; also called AO-B.1; AO-176 B

EC50 [1]: 10.5 µg/mL
EC50 [2]: 21.8 µg/mL
EC50 [3]: 0.0395 µg/mL
EC50 [4]: 0.00578 µg/mL
Kd [9]: 6 nM
koff [9]: ~0.01 s⁻¹
kon [9]: 2.3e+06 M⁻¹ s⁻¹
Kd [6]: 3 nM
koff [6]: 0.003 s⁻¹
kon [6]: 1.2e+06 M⁻¹ s⁻¹
B3: AO-C IgG1 (AO-176 candidate C) (antibody, V domains shown)
VH: B1 VH with A16S, N61A, K65Q, D66G, M70I, R72A, T74E, V79A
VL: B1 VL
notes: Comparator from WO2020/198370; also called AO-C.1; SC-AO-C

Kd [10]: 0.003 nM
koff [10]: 4.4e-06 s⁻¹
kon [10]: 1.5e+06 M⁻¹ s⁻¹
B4: CO-1.4 antibody (chimeric CO-1 IgG4) (antibody)
heavy: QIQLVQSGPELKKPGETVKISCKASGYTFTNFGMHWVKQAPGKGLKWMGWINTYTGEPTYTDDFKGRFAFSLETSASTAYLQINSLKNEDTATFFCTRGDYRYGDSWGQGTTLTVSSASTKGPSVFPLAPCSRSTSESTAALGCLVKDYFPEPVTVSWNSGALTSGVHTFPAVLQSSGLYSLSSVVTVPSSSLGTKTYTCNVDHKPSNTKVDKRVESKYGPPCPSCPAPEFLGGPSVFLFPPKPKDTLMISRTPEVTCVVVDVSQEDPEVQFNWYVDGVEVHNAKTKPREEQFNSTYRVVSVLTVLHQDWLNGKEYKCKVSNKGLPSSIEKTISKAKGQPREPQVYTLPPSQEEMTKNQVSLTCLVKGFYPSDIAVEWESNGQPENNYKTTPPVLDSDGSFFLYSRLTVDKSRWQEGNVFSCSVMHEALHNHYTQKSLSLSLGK
light: DVVMTQTPLSLPVSLGDQASISCRSSQSLVHSNGKTYLHWYLQKPGQSPKLLIYRVSNRFSGVPDRFSGSGSGTDFTLKISRIEAEDLGVYFCSQSTHVPFTFGSGTKLEIKRTVAAPSVFIFPPSDEQLKSGTASVVCLLNNFYPREAKVQWKVDNALQSGNSQESVTEQDSKDSTYSLSSTLTLSKADYEKHKVYACEVTHQGLSSPVTKSFNRGEC
notes: Chimeric: mouse variable domains of mCO-1 with human IgG4 constant regions; also called SC-CO-1.4

koff [11]: 4.5e-05 s⁻¹
kon [11]: 6.9e+06 M⁻¹ s⁻¹
B5: CO-1 F(ab')2 antibody (other)
heavy: QIQLVQSGPELKKPGETVKISCKASGYTFTNFGMHWVKQAPGKGLKWMGWINTYTGEPTYTDDFKGRFAFSLETSASTAYLQINSLKNEDTATFFCTRGDYRYGDSWGQGTTLTVSSASTKGPSVFPLAPSSKSTSGGTAALGCLVKDYFPEPVTVSWNSGALTSGVHTFPAVLQSSGLYSLSSVVTVPSSSLGTQTYICNVNHKPSNTKVDKKVEPKSCDKTHTCPPCPAPELLG
light: B4 light
notes: F(ab')2 fragment, divalent for CD47, based on mCO-1; also called CO F(ab')2; CO-F(ab')2

Kd [12]: 0.0153 nM
koff [12]: 7.3e-05 s⁻¹
kon [12]: 4.8e+06 M⁻¹ s⁻¹
B6: CO207 humanized IgG4 anti-CD47 antibody (antibody, V domains shown)
VH: QVQLVQSGSELKKPGASVKVSCKASGYTFTNFGMHWVRQAPGQGLKWMGWINTYTGEPTYTDDFKGRFVFSLDTSVSTAYLQISSLKAEDTAVYYCTRGDYRYGDSWGQGTTVTVSS
VL: DIVMTQTPLSLSVTPGQPASISCRSSQSLVHSNGKTYLHWYLQKPGQSPQLLIYRVSNRFSGVPDRFSGSGSGTDFTLKISRVEAEDVGVYYCSQSTHVPFTFGQGTKLEIK
notes: also called huCO-mAb

EC50 (read off the curve) [13]: ~0.08 µg/mL
Kd [12]: 0.056 nM
koff [12]: 0.00046 s⁻¹
kon [12]: 8.2e+06 M⁻¹ s⁻¹
B7: CO205 humanized IgG4 anti-CD47 antibody (antibody, V domains shown)
VH: B6 VH with K46E, T97A
VL: B6 VL
notes: also called huCO-mAb

Kd [12]: 0.0135 nM
koff [12]: 6.8e-05 s⁻¹
kon [12]: 5.1e+06 M⁻¹ s⁻¹
B8: CO211 humanized IgG4 anti-CD47 antibody (antibody, V domains shown)
VH: B6 VH
VL: B6 VL with Q50K
notes: also called huCO-mAb

Kd [12]: 0.0149 nM
koff [12]: 8.5e-05 s⁻¹
kon [12]: 5.7e+06 M⁻¹ s⁻¹
B9: CO204 humanized IgG4 anti-CD47 antibody (antibody, V domains shown)
VH: B6 VH with Q43K
VL: B6 VL with S48P
notes: also called huCO-mAb

Kd [12]: 0.0386 nM
koff [12]: 0.00032 s⁻¹
kon [12]: 8.2e+06 M⁻¹ s⁻¹
B10: CO209 humanized IgG4 anti-CD47 antibody (antibody, V domains shown)
VH: B6 VH with K46E, T97A
VL: B6 VL with Q50K
notes: also called huCO-mAb

Kd [12]: 0.017 nM
koff [12]: 8.3e-05 s⁻¹
kon [12]: 4.9e+06 M⁻¹ s⁻¹
B11: CO210 humanized IgG4 anti-CD47 antibody (antibody, V domains shown)
VH: B6 VH with K46E
VL: B6 VL with Q50K
notes: also called huCO-mAb

Kd [12]: 0.032 nM
koff [12]: 0.00034 s⁻¹
kon [12]: 1.1e+07 M⁻¹ s⁻¹
B12: CO213 humanized IgG4 anti-CD47 antibody (antibody, V domains shown)
VH: B6 VH with T97A
VL: B6 VL with S48P
notes: also called huCO-mAb

EC50 (read off the curve) [13]: ~0.07 µg/mL
Kd [12]: 0.0499 nM
koff [12]: 0.00043 s⁻¹
kon [12]: 8.7e+06 M⁻¹ s⁻¹
B13: CO201 humanized IgG4 anti-CD47 antibody (antibody, V domains shown)
VH: B6 VH with K46E, T97A
VL: B6 VL with S48P
notes: also called huCO-mAb

Kd [12]: 0.0123 nM
koff [12]: 7.2e-05 s⁻¹
kon [12]: 5.8e+06 M⁻¹ s⁻¹
B14: CO212 humanized IgG4 anti-CD47 antibody (antibody, V domains shown)
VH: B6 VH with Q43K
VL: B6 VL with Q50K
notes: also called huCO-mAb

Kd [12]: 0.0205 nM
koff [12]: 0.0001 s⁻¹
kon [12]: 5.1e+06 M⁻¹ s⁻¹
B15: CO206 humanized IgG4 anti-CD47 antibody (antibody, V domains shown)
VH: B6 VH with K46E
VL: B6 VL
notes: also called huCO-mAb

Kd [12]: 0.023 nM
koff [12]: 0.00012 s⁻¹
kon [12]: 5.3e+06 M⁻¹ s⁻¹
B16: CO202 humanized IgG4 anti-CD47 antibody (antibody, V domains shown)
VH: B6 VH with K46E
VL: B6 VL with S48P
notes: also called huCO-mAb

Kd [12]: 0.016 nM
koff [12]: 8.1e-05 s⁻¹
kon [12]: 5e+06 M⁻¹ s⁻¹
B17: CO208 humanized IgG4 anti-CD47 antibody (antibody, V domains shown)
VH: B6 VH with Q43K
VL: B6 VL
notes: also called huCO-mAb

Kd [12]: 0.0164 nM
koff [12]: 7.9e-05 s⁻¹
kon [12]: 4.8e+06 M⁻¹ s⁻¹
B18: CO203 humanized IgG4 anti-CD47 antibody (antibody, V domains shown)
VH: B6 VH
VL: B6 VL with S48P
notes: also called huCO-mAb
